This note sets out measurements from paper PMC1334386 (PLoS Biology, 2006).

“Also recorded” adds a separate entry of the source.

For experiment [1], the target named is T1, HAUSP TRAF-like domain (residues 53–206) (Homo sapiens, UniProt Q93009).
T1 construct: GST (N); made in house; host or cells: Escherichia coli BL21(DE3), vector pGEX-2T
Nature of the experiment: gel filtration binding assay of MDM2 fragments with HAUSP TRAF-like domain. To be noted: Superdex-200, HAUSP residues 53–206, 25 mM Tris pH 8.0, 100 mM NaCl, 2 mM DTT, 4 °C. As for the experimental part: (§1) Size-exclusion chromatography (gel filtration), using a Superdex-200 column (10/30, Amersham Pharmacia Biotech, Piscataway, New Jersey, United States), was employed to carry out all the in vitro binding assays. Proteins subjected to binding tests were incubated at 4 °C for at least 45 min to allow equilibrium to be reached. The flow rate was 0.5 ml/min, and the buffer contained 25 mM Tris (pH 8.0), 100 mM NaCl, and 2 mM DTT. All fractions were collected at 0.5 ml each. Aliquots of relevant fractions were mixed with SDS sample buffer and subjected to SDS-polyacrylamide gel electrophoresis. The proteins were visualized by Coomassie Blue staining. The column was calibrated with molecular-mass standards.

Experiment [2] has as its system HAUSP TRAF-like domain (residues 1–206). Nature of the experiment: in vitro competition assay using gel filtration chromatography, MDM2 versus p53. It is filed as binding. To be noted: 10-fold molar equivalence of p53 (351–382) preincubated with HAUSP 5 min at 4 °C, then one molar equivalence of MDM2 (208–289) 45 min at 4 °C, SDS-PAGE/Coomassie.
Experiment [3] shares this test system. The experiment can be described thus: gel filtration binding assay with HAUSP (residues 1–206). As to conditions: Superdex-200, 25 mM Tris pH 8.0, 100 mM NaCl, 2 mM DTT, 4 °C, SDS-PAGE/Coomassie, protein alone, no competitor. As for the experimental part:
as §1

T1 sequence (Q93009 53-206): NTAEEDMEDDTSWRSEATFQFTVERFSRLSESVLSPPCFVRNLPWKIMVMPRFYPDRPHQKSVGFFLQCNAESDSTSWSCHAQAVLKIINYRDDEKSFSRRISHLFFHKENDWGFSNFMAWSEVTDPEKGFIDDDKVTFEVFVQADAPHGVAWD

B1: MDM2 fragment residues 223–289: MDM2 fragment encompassing residues 223–289 (protein)
chain: DLDAGVSEHSGDWLDQDSVSDQFSVEFEVESLDSEDYSLSEEGQELSDEDDEVYQVTVYQAGESDTD
In the case of B1, the “complex formation with HAUSP TRAF-like domain” value in experiment [1] is “formed a stable complex”.

B2: MDM2 fragment residues 170–232: MDM2 fragment encompassing residues 170–232 (protein)
chain: ENSDELSGERQRKRHKSDSISLSFDESLALCVIREICCERSSSSESTGTPSNPDLDAGVSEHS
For the molecule B2, the “complex formation with HAUSP TRAF-like domain” value in experiment [1] is “formed a stable complex”.

B3: MDM2 (residues 208–289): MDM2 fragment, residues 208–289 (protein)
chain: ERSSSSESTGTPSNPDLDAGVSEHSGDWLDQDSVSDQFSVEFEVESLDSEDYSLSEEGQELSDEDDEVYQVTVYQAGESDTD
B3: in experiment [2], the “complex formation with HAUSP in competition” value is reported as “formed a stable complex only with MDM2; also recorded: formed a stable complex with HAUSP”. The “complex formation with HAUSP (residues 1–206)” value in experiment [3] is listed as “interacts”.
